The supplement of paper PMC10567573

B1: PPP2R2B (parent)
chain: PSNRSFFSEIISSISDVKFSHSGR

Variants of: B1
Assay: protein stability index of a GFP-peptide fusion (GPS, HEK-293T) (PSI 1-6); higher = more stable
Settings: c terminus: a fixed tail appended
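Note: lentivirally expressed fusions sorted by FACS into six bins by GFP to DsRed ratio, PSI derived from sequencing read proportions per bin multiplied by bin number.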

Protein stability index: each site, then its substitutions
I11: C 4.01, F 4.67, H 3.46, N 3.21, A 3.34, Y 3.4, E 3.59, V 3.26, D 3.46, T 3.19, K 3, G 3.36, P 3.57, W 2.59, S 3.2, M 2.69, Q 3.04, R 2.97, L 2.3
F7: E 3.69, L 2.25, P 2.87, K 3.26, G 3.42, R 3.32, D 3.56, Q 3.64, W 2.41, H 3.32, A 3.38, T 2.79, I 2.87, N 3.48, C 2.83, Y 2.51, M 2.79, V 2.24, S 4.24
E9: N 2.36, R 2.2, L 2.58, W 1.91, F 1.63, D 2.44, T 2.17, C 2.03, Y 1.95, V 2.15, I 3.63, M 1.47, H 1.99, A 2.12, K 2.23, P 2.45, Q 2.31, G 2.64, S 2.26
V17: Y 2.29, R 2.31, M 2.53, L 2.75, E 3.05, S 2.5, T 2.72, C 2.4, Q 2.81, F 2.18, A 2.27, I 2.53, N 2.9, G 2.53, D 3.18, H 3.21, K 2.73, P 2.63, W 2.49
S12: K 2.49, V 1.82, R 2.31, E 2.57, I 3.11, G 2.54, A 2.23, W 1.98, D 2.54, N 2.5, Y 2.3, P 2.65, C 2.06, Q 2.33, F 1.72, M 2.04, T 2.28, L 1.69, H 2.32
S20: I 2.22, L 2.41, C 2.12, P 2.48, R 1.94, G 2.26, V 2.33, A 2.39, T 2.78, W 2.38, M 1.95, E 2.94, Q 2.45, Y 1.75, N 2.27, D 2.88, H 2.18, K 2.7, F 2.02
D16: R 2.15, F 1.66, T 2.28, Q 2.42, M 2.02, C 1.92, P 2.56, S 1.92, G 2.29, W 1.99, Y 1.61, I 1.74, E 2.28, A 2.34, N 2.57, K 2.13, H 2.19, L 2.05, V 2.17
S13: P 2.99, C 2.19, M 1.76, Y 1.65, F 1.73, N 2.79, K 2.19, Q 2.82, H 2.67, G 2.37, E 3.26, I 2.5, R 2.63, V 1.99, A 1.87, T 2.64, W 2.34, L 2.45, D 2.58
I14: P 3.05, A 2.79, Y 2.19, C 2.46, M 2.6, V 2.81, N 3.05, H 2.79, L 2.54, E 4, D 3.04, K 3.17, F 2.17, R 3.05, G 3.26, W 2.4, S 3.19, Q 3.18, T 3.09
S22: V 2.06, T 2.42, K 2.64, E 2.37, G 2.57, F 2.19, M 2.27, C 1.89, A 2.4, W 1.9, R 2.71, Y 2.2, D 2.79, L 2.48, N 2.58, P 2.38, H 2.48, I 2.11, Q 2.43
G23: C 2.36, H 2.27, T 2.14, P 2.74, R 2.54, K 2.49, Q 2.24, D 2.72, A 2.31, N 2.79, M 2.25, V 1.66, I 1.88, L 2.08, E 2.7, W 2.09, S 2.33, F 2.09
F19: R 2.99, E 3.58, T 3.07, L 2.93, M 2.88, V 2.5, Q 2.79, G 2.86, D 3.52, P 3, A 3.07, I 2.43, H 3.02, N 3.15, Y 2.57, S 3.3, C 3.03, K 3.02, W 1.97
K18: R 2.55, D 2.59, M 2.02, T 2.31, S 2.61, V 2.09, G 2.66, P 2.23, F 2.17, W 2.38, E 2.35, Y 1.97, Q 2.47, L 2.35, I 2.33, A 2.15, N 2.36, H 2.04, C 1.94
S8: H 2.31, E 2.57, Y 1.91, I 2.84, V 1.52, R 2.33, T 2.62, A 1.91, Q 2.33, N 2.44, W 1.98, P 2.69, F 2.11, C 1.7, D 2.32, K 2.36, G 2.41, M 2.43, L 2.04
H21: T 2.11, C 2.22, R 3.27, G 2.39, F 1.88, N 2.48, M 2.41, P 2.67, D 2.54, K 2.85, Y 1.97, W 2.31, L 2.03, A 2.7, V 2.04, E 2.87, I 2.13, Q 2.26, S 1.93
F6: P 3.02, Q 2.89, K 2.99, N 2.9, T 3.4, M 2.76, W 2.32, V 2.66, Y 2.52, S 3.07, R 3.02, L 2.39
S15: Q 2.31, V 2.27, W 2.34, E 2.93, K 2.35, I 2.26, M 2.08, G 2.65, T 2.05, D 2.83, N 2.77, H 2.39, L 2.13, F 1.79, C 1.81, A 1.73, R 2.25, P 2.85, Y 2.05
I10: K 3.11, N 3.09, T 3.37, Y 3.01, G 3.39, M 2.62, F 2.43, H 2.98, W 2.33, R 2.79, L 1.79, C 2.91, D 3.13, E 3.64, Q 3.06, P 3.44, V 2.83, S 3.09, A 3.33
